Experimental data taken from paper PMC9882641.
pKi: −log10 of the molar value.

What was measured:
Experiment in all cases: enzyme inhibition assay (chromogenic substrate, fit to Morrison's tight binding equation); MMP-2ACT (0.6 nM), MMP-9CAT (3 nM) or MMP-14CAT (1 nM) incubated with 0-25 nM N-TIMP2 variant for 1 h at 37 C in 50 mM HEPES, 10 mM CaCl2, 0.05% Brij-35, 1 mM DTNB, pH 7.5; then 100 uM chromogenic substrate, absorbance at 412 nm; three independent experiments
[1] = biological target: human MMP-14 catalytic domain (MMP-14CAT) (human) (UniProt P50281)
[2] = biological target: activated MMP-2 (MMP-2ACT) (human) (UniProt P08253)
[3] = biological target: human MMP-9 catalytic domain (MMP-9CAT) (human) (UniProt P14780)

Substance	pKi [1]	pKi [2]	pKi [3]
N-TIMP2-A70DOPA (from UniProt P16035 27-153) (domain or fragment)	7.97	9.11	9.34
N-TIMP2-S2DOPA (from UniProt P16035 27-153) (domain or fragment)	7.84	8.50	9.21
N-TIMP2-S2HqAla (from UniProt P16035 27-153) (domain or fragment)	7.01	7.01	7.15
N-TIMP2-S69HqAla (from UniProt P16035 27-153) (domain or fragment)	7.94	9.22	9.35

Further lines, results first:

pKi [1]	pKi [2]	pKi [3]	Substance
7.56	7.78	8.71	N-TIMP2-A70HqAla (from UniProt P16035 27-153) (domain or fragment)
7.85	9.00	9.07	N-TIMP2-L100DOPA (from UniProt P16035 27-153) (domain or fragment)
7.67	9.34	9.33	N-TIMP2-S69DOPA (from UniProt P16035 27-153) (domain or fragment)
8.33	9.38	9.27	N-TIMP2-Y36HqAla (from UniProt P16035 27-153) (domain or fragment)
